Key:
[1] = target: hIL5 (human, UniProt P05113 20-134); assay: ELISA
[2] = target: hTSLP (human, UniProt Q969D9 29-159); assay: ELISA

Row | Binder | EC50 [1] [nM] | EC50 [2] [nM]
1 | HJ-5 (bispecific antibody) chain 1: not shown chain 2: DIQMTQSPSSVSASVGDRVTITCRASQDIANYLSWYQQKPGKSPKLLIYGTSNLEVGVPSRFSGSRSGTDFTLTISSLQPEDFATYYCLQDKEFPRTFGGGTKVEIKGGGGSSGAPRFLTRPKASVVSVGKDATLSSQIVGNPFPQVSWEKDKQPVTAGVRFRLAQDGDLYRLKILDLQLSDSGQYVSRARNAHGEAFACLGLQVDAEA chain 3: EVQLVQSGAEVKKPGSSVKVSCKASGYTFSNYLIEWVRQAPGQGLEWIGVIDPGVGDTNYNENFKGRATLTADKSTSTAYIELSSLRSEDTAVYYCAREDNTGTAFDYWGQGTTVTVSSASTKGPSVFPLAPSSKSTSGGTAALGCLVKDYFPEPVTVSWNSGALTSGVHTFPAVLQSSGLYSLSSVVTVPSSSLGTQTYICNVNHKPSNTKVDKKVEPKSCDKTHTCPPCPAPEAAGGPSVFLFPPKPKDTLMISRTPEVTCVVVDVSHEDPEVKFNWYVDGVEVHNAKTKPREEQYNSTYRVVSVLTVLHQDWLNGKEYKCKVSNKALPAPIEKTISKAKGQPREPQVCTLPPSREEMTKNQVSLSCAVKGFYPSDIAVEWESNGQPENNYKTTPPVLDSDGSFFLVSKLTVDKSRWQQGNVFSCSVMHEALHNHYTQKSLSLSPGK chain 4: SIVMTQTPLSLSVTPGQPASISCKASQSVSSDVTWYLQKPGQSPQLLIYYVSEHYTGVPDRFSGSGYGTDFTLKISRVEAEDVGVYYCQQHHRFPLTFGQGTKLEIKRTVAAPSVFIFPPSDEQLKSGTASVVCLLNNFYPREAKVQWKVDNALQSGNSQESVTEQDSKDSTYSLSSTLTLSKADYEKHKVYACEVTHQGLSSPVTKSFNRGEC | 16 | 2.64
2 | HJ-9 (bispecific antibody) chain 1: not shown chain 2: DIQMTQSPSSVSASVGDRVTITCRASQDIANYLSWYQQKPGKSPKLLIYGTSNLEVGVPSRFSGSRSGTDFTLTISSLQPEDFATYYCLQDKEFPRTFGGGTKVEIKRTVASSGAPRFLTCPKASVVSVGKDATLSSQIVGNPFPQVSWEKDKQPVTAGVRFRLAQDGDLYRLKILDLQLSDSGQYVSRARNAHGEAFACLGLQVDAEA chain 3: EVQLVQSGAEVKKPGSSVKVSCKASGYTFSNYLIEWVRQAPGQGLEWIGVIDPGVGDTNYNENFKGRATLTADKSTSTAYIELSSLRSEDTAVYYCAREDNTGTAFDYWGQGTTVTVSSASTKGPSVFPLAPSSKSTSGGTAALGCLVKDYFPEPVTVSWNSGALTSGVHTFPAVLQSSGLYSLSSVVTVPSSSLGTQTYICNVNHKPSNTKVDKKVEPKSCDKTHTCPPCPAPEAAGGPSVFLFPPKPKDTLMISRTPEVTCVVVDVSHEDPEVKFNWYVDGVEVHNAKTKPREEQYNSTYRVVSVLTVLHQDWLNGKEYKCKVSNKALPAPIEKTISKAKGQPREPQVCTLPPSREEMTKNQVSLSCAVKGFYPSDIAVEWESNGQPENNYKTTPPVLDSDGSFFLVSKLTVDKSRWQQGNVFSCSVMHEALHNHYTQKSLSLSPGK chain 4: SIVMTQTPLSLSVTPGQPASISCKASQSVSSDVTWYLQKPGQSPQLLIYYVSEHYTGVPDRFSGSGYGTDFTLKISRVEAEDVGVYYCQQHHRFPLTFGQGTKLEIKRTVAAPSVFIFPPSDEQLKSGTASVVCLLNNFYPREAKVQWKVDNALQSGNSQESVTEQDSKDSTYSLSSTLTLSKADYEKHKVYACEVTHQGLSSPVTKSFNRGEC | 10.9 | 3.18
3 | HJ-6 (bispecific antibody) chain 1: not shown chain 2: DIQMTQSPSSVSASVGDRVTITCRASQDIANYLSWYQQKPGKSPKLLIYGTSNLEVGVPSRFSGSRSGTDFTLTISSLQPEDFATYYCLQDKEFPRTFGGGTKVEIKGGGGSSGAPRFLTCPKASVVSVGKDATLSSQIVGNPFPQVSWEKDKQPVTAGVRFRLAQDGDLYRLKILDLQLSDSGQYVSRARNAHGEAFACLGLQVDAEA chain 3: EVQLVQSGAEVKKPGSSVKVSCKASGYTFSNYLIEWVRQAPGQGLEWIGVIDPGVGDTNYNENFKGRATLTADKSTSTAYIELSSLRSEDTAVYYCAREDNTGTAFDYWGQGTTVTVSSASTKGPSVFPLAPSSKSTSGGTAALGCLVKDYFPEPVTVSWNSGALTSGVHTFPAVLQSSGLYSLSSVVTVPSSSLGTQTYICNVNHKPSNTKVDKKVEPKSCDKTHTCPPCPAPEAAGGPSVFLFPPKPKDTLMISRTPEVTCVVVDVSHEDPEVKFNWYVDGVEVHNAKTKPREEQYNSTYRVVSVLTVLHQDWLNGKEYKCKVSNKALPAPIEKTISKAKGQPREPQVCTLPPSREEMTKNQVSLSCAVKGFYPSDIAVEWESNGQPENNYKTTPPVLDSDGSFFLVSKLTVDKSRWQQGNVFSCSVMHEALHNHYTQKSLSLSPGK chain 4: SIVMTQTPLSLSVTPGQPASISCKASQSVSSDVTWYLQKPGQSPQLLIYYVSEHYTGVPDRFSGSGYGTDFTLKISRVEAEDVGVYYCQQHHRFPLTFGQGTKLEIKRTVAAPSVFIFPPSDEQLKSGTASVVCLLNNFYPREAKVQWKVDNALQSGNSQESVTEQDSKDSTYSLSSTLTLSKADYEKHKVYACEVTHQGLSSPVTKSFNRGEC | 37 | 2.88
4 | HJ-7 (bispecific antibody) chain 1: not shown chain 2: DIQMTQSPSSVSASVGDRVTITCRASQDIANYLSWYQQKPGKSPKLLIYGTSNLEVGVPSRFSGSRSGTDFTLTISSLQPEDFATYYCLQDKEFPRTFGGGTKVEIKGGGGSSGAPRFLTRPKASVVSVGKDATLSCQIVGNPFPQVSWEKDKQPVTAGVRFRLAQDGDLYRLKILDLQLSDSGQYVCRARNAHGEAFACLGLQVDAEA chain 3: EVQLVQSGAEVKKPGSSVKVSCKASGYTFSNYLIEWVRQAPGQGLEWIGVIDPGVGDTNYNENFKGRATLTADKSTSTAYIELSSLRSEDTAVYYCAREDNTGTAFDYWGQGTTVTVSSASTKGPSVFPLAPSSKSTSGGTAALGCLVKDYFPEPVTVSWNSGALTSGVHTFPAVLQSSGLYSLSSVVTVPSSSLGTQTYICNVNHKPSNTKVDKKVEPKSCDKTHTCPPCPAPEAAGGPSVFLFPPKPKDTLMISRTPEVTCVVVDVSHEDPEVKFNWYVDGVEVHNAKTKPREEQYNSTYRVVSVLTVLHQDWLNGKEYKCKVSNKALPAPIEKTISKAKGQPREPQVCTLPPSREEMTKNQVSLSCAVKGFYPSDIAVEWESNGQPENNYKTTPPVLDSDGSFFLVSKLTVDKSRWQQGNVFSCSVMHEALHNHYTQKSLSLSPGK chain 4: SIVMTQTPLSLSVTPGQPASISCKASQSVSSDVTWYLQKPGQSPQLLIYYVSEHYTGVPDRFSGSGYGTDFTLKISRVEAEDVGVYYCQQHHRFPLTFGQGTKLEIKRTVAAPSVFIFPPSDEQLKSGTASVVCLLNNFYPREAKVQWKVDNALQSGNSQESVTEQDSKDSTYSLSSTLTLSKADYEKHKVYACEVTHQGLSSPVTKSFNRGEC | 17.7 | 2.18
5 | HJ-8 (bispecific antibody) chain 1: not shown chain 2: DIQMTQSPSSVSASVGDRVTITCRASQDIANYLSWYQQKPGKSPKLLIYGTSNLEVGVPSRFSGSRSGTDFTLTISSLQPEDFATYYCLQDKEFPRTFGGGTKVEIKRTVASSGAPRFLTRPKASVVSVGKDATLSSQIVGNPFPQVSWEKDKQPVTAGVRFRLAQDGDLYRLKILDLQLSDSGQYVSRARNAHGEAFACLGLQVDAEA chain 3: EVQLVQSGAEVKKPGSSVKVSCKASGYTFSNYLIEWVRQAPGQGLEWIGVIDPGVGDTNYNENFKGRATLTADKSTSTAYIELSSLRSEDTAVYYCAREDNTGTAFDYWGQGTTVTVSSASTKGPSVFPLAPSSKSTSGGTAALGCLVKDYFPEPVTVSWNSGALTSGVHTFPAVLQSSGLYSLSSVVTVPSSSLGTQTYICNVNHKPSNTKVDKKVEPKSCDKTHTCPPCPAPEAAGGPSVFLFPPKPKDTLMISRTPEVTCVVVDVSHEDPEVKFNWYVDGVEVHNAKTKPREEQYNSTYRVVSVLTVLHQDWLNGKEYKCKVSNKALPAPIEKTISKAKGQPREPQVCTLPPSREEMTKNQVSLSCAVKGFYPSDIAVEWESNGQPENNYKTTPPVLDSDGSFFLVSKLTVDKSRWQQGNVFSCSVMHEALHNHYTQKSLSLSPGK chain 4: SIVMTQTPLSLSVTPGQPASISCKASQSVSSDVTWYLQKPGQSPQLLIYYVSEHYTGVPDRFSGSGYGTDFTLKISRVEAEDVGVYYCQQHHRFPLTFGQGTKLEIKRTVAAPSVFIFPPSDEQLKSGTASVVCLLNNFYPREAKVQWKVDNALQSGNSQESVTEQDSKDSTYSLSSTLTLSKADYEKHKVYACEVTHQGLSSPVTKSFNRGEC | 18.7 | 3.33

Reference: patent publication US20250043022A1 (JIANGSU HENGRUI PHARMACEUTICALS, published 2025)
